Assay results taken from the RNAGym collection of RNA variant scans (doi:10.1073/pnas.2313332121).

B1: TPR t1 (parent)
chain: GACCAAUCUGCCCUCAGAGCUCGAGAACAUCUUCGGAUGCAGAGGAGGCAGGCUUCGGUGGCGCGAUAGCGCCAACGUCCUCAACCUCCAAUGCAUCCCACCACAUGAUGAUGCCUGAAGAGCCUUGGUUUUUUG

Variants of: B1
Experiment: polymerase ribozyme fitness, log enrichment relative to wild type (log ratio); higher = more active; in vitro selection for triplet polymerase activity
Outline: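 Streptavidin-bead capture of gel-excised extended constructs, followed by RT-PCR, closed a single triplicate in vitro selection round. That round began by annealing PCR-built, transcribed mutant libraries of each subunit of a heterodimeric triplet polymerase ribozyme with a biotinylated primer, the partner subunit and triplets, then incubating them frozen at −7 °C. After Illumina sequencing of inputs and outputs, genotypes needed ≥10 input reads and ≥1 read per output. Fitness is the base-2 logarithm of genotype enrichment over wild-type enrichment, using inverse-variance-weighted replicate averages.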

| Variant | polymerase ribozyme fitness (log ratio) |
| --- | --- |
| A41C U55G A66C G93C | -4.9 |
| G42A A43G C56A A66U A91G U96A U112G | -6.49 |
| C34U G117A | -5.61 |
| C20A A37C G47C A83U U133G | -4.54 |
| G93A G110A | -1.24 |
| C11U C82U | -1.45 |
| C72G G120C | 0.587 |
| C56A G69U | -0.137 |
| A5C U55C G120U C123G U131A | 0.062 |
| A43G A74C | -2.19 |
| C82A C85A G120U | -0.479 |
| C13U G47A C82G | -2.07 |
| G17A C28G G48A U96G A100G U112G A121C | -6.43 |
| C15G C53G G60A | -3.25 |
| C12U G39C | -0.515 |
| G61A U96G U130C | -0.371 |
| G44U U112C | 0.722 |
| C89A C123U U129A | -1.73 |
| C4A C11G C13A C53U G69C U81G G110A | -6.32 |
| G52U C82U G110U | -2.9 |
| C4U A68G | -3.11 |

| Variant | polymerase ribozyme fitness (log ratio) |
| --- | --- |
| C20A G58C C72U C76U | -3.69 |
| C34U G60A C124A | -3.3 |
| C124A U131G | 1.63 |
| A24G G51U | -4.9 |
| G17A U55C G61U G113A U130C | -5.74 |
| U14C C70A G117U | -5.57 |
| G17C C123A | -2.92 |
| A119U G135U | -1.1 |
| C12A A66C U78A | -2.43 |
| C13G G69U | -0.536 |
| U9C G36U G63A | -1.4 |
| A16C G77C G120U C123U | -2.57 |
| C15G G48C C85U G122A | -3.3 |
| C15U C22U C72U G120C | -3.96 |
| G47U C80U C124A U131G G135A | -0.0494 |
| G17U C49A C56A | -4.3 |
| G10U A18U A29U U54A C73A A121C | -1.7 |
| C115G G117A G135A | -3.04 |
| C82A G93C C115U G122A | -3.46 |
| C3G U7G G17C | -3.73 |
| G69C U109A | -8.01 |

| Variant | polymerase ribozyme fitness (log ratio) |
| --- | --- |
| G63A A95C | -2.22 |
| C13G G44A | -2.85 |
| C49G C70U G113U U125C U131G | -6.12 |
| G58U C99U G117C U131C | -5.92 |
| G19C A24U G48U G52U C64G U109A G110U | -7.39 |
| G10A C11U C13U C62A C79A U106C G122A | -3.29 |
| C49G G52A C53U A84G C85U C94U | -1.34 |
| A66G A100U G120C | -0.756 |
| G19A G110U | -3.66 |
| C79U G93C A100U U112G | -2.61 |
| U92G A121C C123G | -0.349 |
| G36U U38A G48U G61U G63A C97U C115U | -5.64 |
| C72G G117C | -3.87 |
| A111C A121C | -0.386 |
| G10C G60U | -0.819 |
| C12A A27U | -3.57 |
| C11G A18U A41U G57A A74U C114U G128C | -4.05 |
| G51A U130A | -3.19 |
| C62G G113A C114G A121U | -4.27 |
| C13A G120C | -0.417 |
| G47C U133G | -1.54 |

| Variant | polymerase ribozyme fitness (log ratio) |
| --- | --- |
| G17U C89G | -2.98 |
| G23C C85G C97A G120C | -7.88 |
| G39U G63U G113A | -3.09 |
| G52C U67A C70A G117C | -6.05 |
| C15A G42A C53A C101U | -4.53 |
| G47A U55G C85U | -1.22 |
| C56G G61U C73U | -3.17 |
| A16G G60A | -1.26 |
| C3A G61U | -1.07 |
| C56A G120C A121U U131A | -0.425 |
| G61C G127A | -2.71 |
| G10A C11G G71A | -0.829 |
| U7G C12A C15A C49A U112A | -0.0165 |
| A43C C88U G93A | -1.96 |
| C8G C34A U78C C97A G107A | -3.66 |
| U9C A41U C72U U78A G93C | -1.36 |
| A29C U54C A84U G120C | -2.27 |
| G39C G48U A75U | -1.28 |
| C82U U96C C98U C115A G117C | -6.13 |
| G52U C62G C89G U109C A111U | -6.22 |
